Experimental data as given in paper PMC10139975 (iScience, 2023).

Biological target: T1, GPR110 F663S mutant (C-terminal HA tag) (human, UniProt Q5T601-1 20-910, F663S)
T1 sequence (looked up): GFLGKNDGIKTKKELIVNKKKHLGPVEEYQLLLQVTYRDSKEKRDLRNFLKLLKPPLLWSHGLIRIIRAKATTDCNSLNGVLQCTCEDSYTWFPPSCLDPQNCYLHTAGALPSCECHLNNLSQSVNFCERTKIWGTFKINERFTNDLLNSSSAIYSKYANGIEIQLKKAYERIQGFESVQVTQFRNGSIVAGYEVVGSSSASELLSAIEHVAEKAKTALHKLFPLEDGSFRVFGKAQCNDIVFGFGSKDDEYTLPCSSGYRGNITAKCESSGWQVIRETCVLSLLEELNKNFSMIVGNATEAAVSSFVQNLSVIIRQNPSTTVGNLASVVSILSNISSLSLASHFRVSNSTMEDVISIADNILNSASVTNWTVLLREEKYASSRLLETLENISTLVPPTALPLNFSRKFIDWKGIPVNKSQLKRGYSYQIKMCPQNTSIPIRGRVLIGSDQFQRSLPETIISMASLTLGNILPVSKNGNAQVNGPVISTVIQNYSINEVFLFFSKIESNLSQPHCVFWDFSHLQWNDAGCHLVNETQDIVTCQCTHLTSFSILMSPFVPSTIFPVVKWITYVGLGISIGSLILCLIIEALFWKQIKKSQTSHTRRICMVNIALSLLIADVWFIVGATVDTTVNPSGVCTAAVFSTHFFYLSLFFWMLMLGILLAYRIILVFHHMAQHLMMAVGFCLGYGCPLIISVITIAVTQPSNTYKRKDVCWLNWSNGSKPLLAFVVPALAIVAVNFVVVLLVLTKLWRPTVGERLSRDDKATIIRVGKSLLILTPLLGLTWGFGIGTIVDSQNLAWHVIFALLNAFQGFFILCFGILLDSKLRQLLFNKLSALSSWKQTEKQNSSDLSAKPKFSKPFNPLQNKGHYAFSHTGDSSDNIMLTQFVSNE
Assay: cross-linking + affinity purification with mass spectrometry

B1: occludin (tight junction protein) (natural protein, human (endogenous in HEK293), UniProt Q16625 1-522, looked up)
chain: MSSRPLESPPPYRPDEFKPNHYAPSNDIYGGEMHVRPMLSQPAYSFYPEDEILHFYKWTSPPGVIRILSMLIIVMCIAIFACVASTLAWDRGYGTSLLGGSVGYPYGGSGFGSYGSGYGYGYGYGYGYGGYTDPRAAKGFMLAMAAFCFIAALVIFVTSVIRSEMSRTRRYYLSVIIVSAILGIMVFIATIVYIMGVNPTAQSSGSLYGSQIYALCNQFYTPAATGLYVDQYLYHYCVVDPQEAIAIVLGFMIIVAFALIIFFAVKTRRKMDRYDKSNILWDKEHIYDEQPPNVEEWVKNVSAGTQDVPSPPSDYVERVDSPMAYSSNGKVNDKRFYPESSYKSTPVPEVVQELPLTSPVDDFRQPRYSSGGNFETPSKRAPAKGRAGRSKRTEQDHYETDYTTGGESCDELEEDWIREYPPITSDQQRQLYKRNFDTGLQEYKSLQSELDEINKELSRLDKELDDYREESEEYMAAADEYNRLKQVKGSADYKSKKNHCKQLKSKLSHIKKMVGDYDRQKT
  fold less than with WT GPR110 (label-free MS quantitation): 5 fold
